From the supplement of paper PMC5998384

Legend:
[1] = test system: HeLa Kyoto; assay: solubility in G1/S (NP-40 vs SDS abundance) (log2 ratio); higher = more soluble; settings: cell cycle stage: G1/S
[2] = test system: HeLa Kyoto; assay: solubility change mitosis vs G1/S (difference of NP-40 vs SDS log2 ratios) (log2 ratio difference); higher = more soluble in mitosis
[3] = test system: HeLa Kyoto; assay: melting temperature (median over replicates), in situ; higher = more thermally stable
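Wherever melting temperature (median over replicates), in situ is given: HeLa Kyoto cells synchronized by double thymidine or nocodazole block, proteins quantified by TMT10plex mass spectrometry, three independent biological replicates.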
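Wherever solubility change mitosis vs G1/S (difference of NP-40 vs SDS log2 ratios) is given: synchronized HeLa Kyoto cells (double thymidine block for G1/S, nocodazole release for mitosis), protein amounts in NP-40 versus SDS lysates quantified by mass spectrometry, three biological replicates.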
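Wherever solubility in G1/S (NP-40 vs SDS abundance) is given: HeLa Kyoto cells arrested at G1/S by double thymidine block, proteins quantified by TMT10plex mass spectrometry in mild NP-40 versus SDS extracts, three biological replicates.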

Sequence of WRN (chain, as listed by the source): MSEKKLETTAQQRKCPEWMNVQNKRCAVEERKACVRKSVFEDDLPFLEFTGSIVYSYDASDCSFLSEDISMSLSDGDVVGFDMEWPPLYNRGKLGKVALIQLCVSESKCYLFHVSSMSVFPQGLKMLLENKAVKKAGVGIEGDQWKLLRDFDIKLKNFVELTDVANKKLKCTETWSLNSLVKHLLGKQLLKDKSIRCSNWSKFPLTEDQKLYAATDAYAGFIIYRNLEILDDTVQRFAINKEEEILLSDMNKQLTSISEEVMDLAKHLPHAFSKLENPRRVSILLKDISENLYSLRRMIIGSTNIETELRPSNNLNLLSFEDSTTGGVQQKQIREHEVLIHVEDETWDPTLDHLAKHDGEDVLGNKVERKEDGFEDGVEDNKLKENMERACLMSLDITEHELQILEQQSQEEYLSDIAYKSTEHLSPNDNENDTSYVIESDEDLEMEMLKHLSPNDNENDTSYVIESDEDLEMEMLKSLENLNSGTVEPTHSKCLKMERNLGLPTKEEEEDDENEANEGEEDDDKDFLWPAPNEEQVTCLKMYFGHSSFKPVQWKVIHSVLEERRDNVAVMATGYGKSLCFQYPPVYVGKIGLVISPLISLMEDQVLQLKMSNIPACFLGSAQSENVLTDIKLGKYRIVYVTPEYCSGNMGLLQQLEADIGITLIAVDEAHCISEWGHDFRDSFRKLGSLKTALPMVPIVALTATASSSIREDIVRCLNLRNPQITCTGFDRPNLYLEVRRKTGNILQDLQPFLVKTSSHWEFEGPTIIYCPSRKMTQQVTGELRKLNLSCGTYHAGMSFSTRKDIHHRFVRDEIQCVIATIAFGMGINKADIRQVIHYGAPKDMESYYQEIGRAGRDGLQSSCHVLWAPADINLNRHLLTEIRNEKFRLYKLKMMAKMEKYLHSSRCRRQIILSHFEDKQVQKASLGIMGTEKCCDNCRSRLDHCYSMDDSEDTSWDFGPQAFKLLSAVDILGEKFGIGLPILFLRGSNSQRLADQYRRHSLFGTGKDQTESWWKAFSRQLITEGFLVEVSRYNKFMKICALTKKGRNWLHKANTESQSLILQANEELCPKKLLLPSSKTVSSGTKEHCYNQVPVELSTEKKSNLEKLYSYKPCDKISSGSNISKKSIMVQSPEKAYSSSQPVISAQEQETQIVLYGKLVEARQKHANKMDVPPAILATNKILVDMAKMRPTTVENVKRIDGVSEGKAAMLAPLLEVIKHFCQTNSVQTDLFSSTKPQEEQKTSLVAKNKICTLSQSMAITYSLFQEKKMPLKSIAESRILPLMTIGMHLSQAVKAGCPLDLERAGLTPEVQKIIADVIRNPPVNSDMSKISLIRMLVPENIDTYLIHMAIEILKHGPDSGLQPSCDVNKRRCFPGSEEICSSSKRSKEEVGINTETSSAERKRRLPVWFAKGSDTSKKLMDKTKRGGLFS
Sequence of PCBD2 (chain, as listed by the source): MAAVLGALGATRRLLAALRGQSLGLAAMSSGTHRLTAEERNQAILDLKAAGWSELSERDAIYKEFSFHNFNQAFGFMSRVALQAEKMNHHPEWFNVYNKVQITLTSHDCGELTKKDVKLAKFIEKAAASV
Sequence of NEK6 (chain, as listed by the source): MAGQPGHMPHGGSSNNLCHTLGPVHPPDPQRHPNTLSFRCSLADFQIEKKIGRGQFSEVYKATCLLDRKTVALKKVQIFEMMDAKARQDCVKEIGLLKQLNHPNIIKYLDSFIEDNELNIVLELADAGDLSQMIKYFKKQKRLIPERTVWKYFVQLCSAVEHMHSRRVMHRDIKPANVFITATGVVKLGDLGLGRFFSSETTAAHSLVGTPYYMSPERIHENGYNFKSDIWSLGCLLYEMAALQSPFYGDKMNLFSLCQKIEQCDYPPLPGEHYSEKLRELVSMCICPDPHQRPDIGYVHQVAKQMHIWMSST
Sequence of PCIF1 (chain, as listed by the source): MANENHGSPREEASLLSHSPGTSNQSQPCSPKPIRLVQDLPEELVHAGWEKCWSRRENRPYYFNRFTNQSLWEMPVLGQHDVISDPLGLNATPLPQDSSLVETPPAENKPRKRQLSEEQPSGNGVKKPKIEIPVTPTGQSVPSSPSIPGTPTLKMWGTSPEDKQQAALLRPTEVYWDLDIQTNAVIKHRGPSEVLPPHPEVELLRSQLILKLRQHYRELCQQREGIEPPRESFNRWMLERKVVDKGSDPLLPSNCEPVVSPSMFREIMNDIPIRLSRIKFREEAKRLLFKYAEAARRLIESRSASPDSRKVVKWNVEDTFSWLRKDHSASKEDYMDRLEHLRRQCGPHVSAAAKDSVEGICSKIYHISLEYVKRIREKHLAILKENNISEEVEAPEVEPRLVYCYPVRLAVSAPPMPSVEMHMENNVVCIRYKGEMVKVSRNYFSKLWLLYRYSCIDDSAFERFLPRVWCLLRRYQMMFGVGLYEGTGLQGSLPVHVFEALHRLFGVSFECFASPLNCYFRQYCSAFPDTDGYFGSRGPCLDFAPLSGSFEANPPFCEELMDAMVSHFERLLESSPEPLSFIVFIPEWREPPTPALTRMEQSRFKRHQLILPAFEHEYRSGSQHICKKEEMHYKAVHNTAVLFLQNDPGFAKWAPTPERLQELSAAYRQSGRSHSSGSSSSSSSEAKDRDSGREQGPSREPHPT
Sequence of WWC1 (chain, as listed by the source): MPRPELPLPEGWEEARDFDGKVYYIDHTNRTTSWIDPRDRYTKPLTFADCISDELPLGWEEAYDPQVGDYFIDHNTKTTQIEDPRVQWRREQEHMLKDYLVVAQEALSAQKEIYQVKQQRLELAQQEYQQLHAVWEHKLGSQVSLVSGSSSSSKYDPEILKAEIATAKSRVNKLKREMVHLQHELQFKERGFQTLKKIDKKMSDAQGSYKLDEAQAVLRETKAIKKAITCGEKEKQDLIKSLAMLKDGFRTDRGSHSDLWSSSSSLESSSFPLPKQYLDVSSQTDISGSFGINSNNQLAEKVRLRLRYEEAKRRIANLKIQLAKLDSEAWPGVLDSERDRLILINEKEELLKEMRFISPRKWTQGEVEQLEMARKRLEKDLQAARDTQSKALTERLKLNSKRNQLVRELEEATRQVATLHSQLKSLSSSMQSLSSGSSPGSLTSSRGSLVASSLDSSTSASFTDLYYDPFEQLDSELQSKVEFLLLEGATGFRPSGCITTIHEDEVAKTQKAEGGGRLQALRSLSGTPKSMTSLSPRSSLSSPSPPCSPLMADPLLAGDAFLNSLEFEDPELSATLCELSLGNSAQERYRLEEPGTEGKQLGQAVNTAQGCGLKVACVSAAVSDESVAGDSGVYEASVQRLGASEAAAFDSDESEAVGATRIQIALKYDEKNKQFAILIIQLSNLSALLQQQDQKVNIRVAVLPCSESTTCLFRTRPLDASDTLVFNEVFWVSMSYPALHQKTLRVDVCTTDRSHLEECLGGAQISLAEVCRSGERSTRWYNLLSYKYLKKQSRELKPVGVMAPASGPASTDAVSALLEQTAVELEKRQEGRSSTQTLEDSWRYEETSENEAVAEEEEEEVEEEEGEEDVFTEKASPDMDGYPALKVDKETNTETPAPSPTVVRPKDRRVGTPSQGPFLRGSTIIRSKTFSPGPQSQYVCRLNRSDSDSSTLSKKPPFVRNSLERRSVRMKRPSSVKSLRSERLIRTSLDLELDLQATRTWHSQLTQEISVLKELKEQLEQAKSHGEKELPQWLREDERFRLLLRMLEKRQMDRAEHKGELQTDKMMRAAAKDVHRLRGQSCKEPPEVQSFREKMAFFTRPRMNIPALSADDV

| Substance | solubility in G1/S (log2) [1] | solubility change mitosis (log2) [2] | melting temperature ([3]; cell cycle stage: G1/S) [°C] | melting temperature ([3]; cell cycle stage: mitosis) [°C] |
| --- | --- | --- | --- | --- |
| ASAP2 | 0.122 | -0.37 | 50.7 | 51.4 |
| ATG2B | -0.312 | 0.00813 |  | 53.4 |
| CEP250 | -0.0371 | 0.272 | 51 | 50.8 |
| KIF13B | -0.0369 | -0.193 | 50.2 | 50.3 |
| MAAAAPGNGRASAPRLLLLFLVPLLWAPAAVRAGPDEDLSHRNKEPPAPAQQLQPQPVAVQGPEPARVEKIFTPAAPVHTNKEDPATQTNLGFIHAFVAAISVIIVSELGDKTFFIAAIMAMRYNRLTVLAGAMLALGLMTCLSVLFGYATTVIPRVYTYYVSTVLFAIFGIRMLREGLKMSPDEGQEELEEVQAELKKKDEEFQRTKLLNGPGDVETGTSITVPQKKWLHFISPIFVQALTLTFLAEWGDRSQLTTIVLAAREDPYGVAVGGTVGHCLCTGLAVIGGRMIAQKISVRTVTIIGGIVFLAFAFSALFISPDSGF [TMEM165] | 0.0487 | -0.178 | 60.8 | 56.9 |
| MAAAPQAPGRGSLRKTRPLVVKTSLNNPYIIRWSALESEDMHFILQTLEDRLKAIGLQKIEDKKKKNKTPFLKKESREKCSIAVDISENLKEKKTDAKQQVSGWTPAHVRKQLAIGVNEVTRALERRELLLVLVCKSVKPAMITSHLIQLSLSRSVPACQVPRLSERIAPVIGLKCVLALAFKKNTTDFVDEVRAIIPRVPSLSVPWLQDRIEDSGENLETEPLESQDRELLDTSFEDLSKPKRKLADGRQASVTLQPLKIKKLIPNPNKIRKPPKSKKATPK [RPP38] | 0.342 | -0.0549 | 53.1 | 51.7 |
| MAAFRDIEEVSQGLLSLLGANRAEAQQRRLLGRHEQVVERLLETQDGAEKQLREILTMEKEVAQSLLNAKEQVHQGGVELQQLEAGLQEAGEEDTRLKASLLQLTRELEELKEIEADLERQEKEVDEDTTVTIPSAVYVAQLYHQVSKIEWDYECEPGMVKGIHHGPSVAQPIHLDSTQLSRKFISDYLWSLVDTEW [SPC24] | -0.0462 | 0.363 | 49.2 | 49.4 |
| MAAGKFASLPRNMPVNHQFPLASSMDLLSSRSPLAEHRPDAYQDVSIHGTLPRKKKGPPPIRSCDDFSHMGTLPHSKSPRQNSPVTQDGIQESPWQDRHGETFTFRDPHLLDPTVEYVKFSKERHIMDRTPEKLKKELEEELLLSSEDLRSHAWYHGRIPRQVSENLVQRDGDFLVRDSLSSPGNFVLTCQWKNLAQHFKINRTVLRLSEAYSRVQYQFEMESFDSIPGLVRCYVGNRRPISQQSGAIIFQPINRTVPLRCLEEHYGTSPGQAREGSLTKGRPDVAKRLSLTMGGVQAREQNLPRGNLLRNKEKSGSQPACLDHMQDRRALSLKAHQSESYLPIGCKLPPQSSGVDTSPCPNSPVFRTGSEPALSPAVVRRVSSDARAGEALRGSDSQLCPKPPPKPCKVPFLKVPSSPSAWLNSEANYCELNPAFATGCGRGAKLPSCAQGSHTELLTAKQNEAPGPRNSGVNYLILDDDDRERPWEPAAAQMEKGQWDKGEFVTPLLETVSSFRPNEFESKFLPPENKPLETAMLKRAKELFTNNDPKVIAQHVLSMDCRVARILGVSEEMRRNMGVSSGLELITLPHGHQLRLDIIERHNTMAIGIAVDILGCTGTLEDRAATLSKIIQVAVELKDSMGDLYSFSALMKALEMPQITRLEKTWTALRHQYTQTAILYEKQLKPFSKLLHEGRESTCVPPNNVSVPLLMPLVTLMERQAVTFEGTDMWEKNDQSCEIMLNHLATARFMAEAADSYRMNAERILAGFQPDEEMNEICKTEFQMRLLWGSKGAQVNQTERYEKFNQILTALSRKLEPPPVKQAEL [BCAR3] | 0.00142 | 0.0356 | 46.3 | 50.1 |
| MAAHLSYGRVNLNVLREAVRRELREFLDKCAGSKAIVWDEYLTGPFGLIAQYSLLKEHEVEKMFTLKGNRLPAADVKNIIFFVRPRLELMDIIAENVLSEDRRGPTRDFHILFVPRRSLLCEQRLKDLGVLGSFIHREEYSLDLIPFDGDLLSMESEGAFKECYLEGDQTSLYHAAKGLMTLQALYGTIPQIFGKGECARQVANMMIRMKREFTGSQNSIFPVFDNLLLLDRNVDLLTPLATQLTYEGLIDEIYGIQNSYVKLPPEKFAPKKQGDGGKDLPTEAKKLQLNSAEELYAEIRDKNFNAVGSVLSKKAKIISAAFEERHNAKTVGEIKQFVSQLPHMQAARGSLANHTSIAELIKDVTTSEDFFDKLTVEQEFMSGIDTDKVNNYIEDCIAQKHSLIKVLRLVCLQSVCNSGLKQKVLDYYKREILQTYGYEHILTLHNLEKAGLLKPQTGGRNNYPTIRKTLRLWMDDVNEQNPTDISYVYSGYAPLSVRLAQLLSRPGWRSIEEVLRILPGPHFEERQPLPTGLQKKRQPGENRVTLIFFLGGVTFAEIAALRFLSQLEDGGTEYVIATTKLMNGTSWIEALMEKPF [VPS33A] | -0.0025 | -0.165 | 49.4 | 49.9 |
| MAAQLLEEKLTCAICLGLYQDPVTLPCGHNFCGACIRDWWDRCGKACPECREPFPDGAELRRNVALSGVLEVVRAGPARDPGPDPGPGPDPAARCPRHGRPLELFCRTEGRCVCSVCTVRECRLHERALLDAERLKREAQLRASLEVTQQQATQAEGQLLELRKQSSQIQNSACILASWVSGKFSSLLQALEIQHTTALRSIEVAKTQALAQARDEEQRLRVHLEAVARHGCRIRELLEQVDEQTFLQESQLLQPPGPLGPLTPLQWDEDQQLGDLKQLLSRLCGLLLEEGSHPGAPAKPVDLAPVEAPGPLAPVPSTVCPLRRKLWQNYRNLTFDPVSANRHFYLSRQDQQVKHCRQSRGPGGPGSFELWQVQCAQSFQAGHHYWEVRASDHSVTLGVSYPQLPRCRLGPHTDNIGRGPCSWGLCVQEDSLQAWHNGEAQRLPGVSGRLLGMDLDLASGCLTFYSLEPQTQPLYTFHALFNQPLTPVFWLLEGRTLTLCHQPGAVFPLGPQEEVLS [TRIM65] | -0.0459 | -0.0816 | 49.2 | 49.3 |
| MAARGRRAEPQGREAPGPAGGGGGGSRWAESGSGTSPESGDEEVSGAGSSPVSGGVNLFANDGSFLELFKRKMEEEQRQRQEEPPPGPQRPDQSAAAAGPGDPKRKGGPGSTLSFVGKRRGGNKLALKTGIVAKKQKTEDEVLTSKGDAWAKYMAEVKKYKAHQCGDDDKTRPLVK [C19ORF43] | 0.0485 | 0.898 | 54.8 | 51.3 |
| MAASTASHRPIKGILKNKTSTTSSMVASAEQPRGNVDEELSKKSQKWDEMNILATYHPADKDYGLMKIDEPSTPYHSMMGDDEDACSDTEATEAMAPDILARKLAAAEGLEPKYRIQEQESSGEEDSDLSPEEREKKRQFEMKRKLHYNEGLNIKLARQLISKDLHDDDEDEEMLETADGESMNTEESNQGSTPSDQQQNKLRSS [PPP1R2] | 0.172 | 0.383 | 59.3 | 52.4 |
| MACLSPSQLQKFQQDGFLVLEGFLSAEECVAMQQRIGEIVAEMDVPLHCRTEFSTQEEEQLRAQGSTDYFLSSGDKIRFFFEKGVFDEKGNFLVPPEKSINKIGHALHAHDPVFKSITHSFKVQTLARSLGLQMPVVVQSMYIFKQPHFGGEVSPHQDASFLYTEPLGRVLGVWIAVEDATLENGCLWFIPGSHTSGVSRRMVRAPVGSAPGTSFLGSEPARDNSLFVPTPVQRGALVLIHGEVVHKSKQNLSDRSRQAYTFHLMEASGTTWSPENWLQPTAELPFPQLYT [PHYHD1] | 0.198 | -0.137 | 50.2 | 51.2 |
| MAELGLNEHHQNEVINYMRFARSKRGLRLKTVDSCFQDLKESRLVEDTFTIDEVSEVLNGLQAVVHSEVESELINTAYTNVLLLRQLFAQAEKWYLKLQTDISELENRELLEQVAEFEKAEITSSNKKPILDVTKPKLAPLNEGGTAELLNKEILRLQEENEKLKSRLKTIEIQATNALDEKSKLEKALQDLQLDQGNQKDFIKAQDLSNLENTVAALKSEFQKTLNDKTENQKSLEENLATAKHDLLRVQEQLHMAEKELEKKFQQTAAYRNMKEILTKKNDQIKDLRKRLAQYEPED [LZTFL1] | 0.713 | 0.0593 | 53.2 | 52.7 |
| MWCLHCNSERTQSLLELELDSGVEGEAPSSETGTSLDSPSAYPQGPLVPGSSLSPDHYEHTSVGAYGLYSGPPGQQQRTRRPKLQHSTSILRKQAEEEAIKRSRSLSESYELSSDLQDKQVEMLERKYGGRLVTRHAARTIQTAFRQYQMNKNFERLRSSMSENRMSRRIVLSNMRMQFSFEGPEKVHSSYFEGKQVSVTNDGSQLGALVSPECGDLSEPTTLKSPAPSSDFADAITELEDAFSRQVKSLAESIDDALNCRSLHTEEAPALDAARARDTEPQTALHGMDHRKLDEMTASYSDVTLYIDEEELSPPLPLSQAGDRPSSTESDLRLRAGGAAPDYWALAHKEDKADTDTSCRSTPSLERQEQRLRVEHLPLLTIEPPSDSSVDLSDRSERGSLKRQSAYERSLGGQQGSPKHGPHSGAPKSLPREEPELRPRPPRPLDSHLAINGSANRQSKSESDYSDGDNDSINSTSNSNDTINCSSESSSRDSLREQTLSKQTYHKEARNSWDSPAFSNDVIRKRHYRIGLNLFNKKPEKGVQYLIERGFVPDTPVGVAHFLLQRKGLSRQMIGEFLGNRQKQFNRDVLDCVVDEMDFSTMELDEALRKFQAHIRVQGEAQKVERLIEAFSQRYCICNPGVVRQFRNPDTIFILAFAIILLNTDMYSPNVKPERKMKLEDFIKNLRGVDDGEDIPREMLMGIYERIRKRELKTNEDHVSQVQKVEKLIVGKKPIGSLHPGLGCVLSLPHRRLVCYCRLFEVPDPNKPQKLGLHQREIFLFNDLLVVTKIFQKKKNSVTYSFRQSFSLYGMQVLLFENQYYPNGIRLTSSVPGADIKVLINFNAPNPQDRKKFTDDLRESIAEVQEMEKHRIESELEKQKGVVRPSMSQCSSLKKESGNGTLSRACLDDSYASGEGLKRSALSSSLRDLSEAGKRGRRSSAGSLESNVEFQPFEPLQPSVLCS [IQSEC1] | -0.0654 | -0.0422 |  |  |
| NEK6 | 0.1 | -0.09 |  |  |
| NISCH | -0.0187 | 0.0432 |  |  |
| PCBD2 | -0.0388 | 0.0587 |  |  |
| PCIF1 | 0.0856 | -0.0368 |  |  |
| PRR12 | 0.163 | 0.0459 |  |  |
| RAI1 | -0.769 | 0.596 |  |  |
| SOGA1 | -0.0256 | 0.0556 |  |  |
| SYNE1 | -0.526 | 0.198 |  |  |
| TAF1 | -0.408 | 0.0526 |  |  |
| WDR81 | -0.0834 | -0.333 |  |  |
| WRN | -0.339 | 0.124 |  |  |
| WWC1 | -0.00567 | -0.4 |  |  |
| WWP1 | -0.159 | 0.0121 |  |  |
